# Data from publication PMC5944358.
# Biological target: MVN-DAVEI4-3Trp (not stated | HIV-1 (strain not stated))
# Assay: ELISA
substance,measurement,value
HIV-1 YU2 gp120 (from UniProt P35961 32-498) (natural protein),EC50,79 nM
